Values of other authors, collected in patent US20190350851A1, “DOSE RESPONSE, SURFACE MODIFIED NANOTUBES” (MOLECULAR REBAR DESIGN, LLC, priority 2018, published 2019).

Settings: in water

Molecule | Hydrodynamic Radius [nm]
NC(=O)CC[C@@H]1NC(=O)[C@H](Cc2ccccc2)NC(=O)[C@H](Cc2ccc(O)cc2)NC(=O)CCSSC[C@@H](C(=O)N2CCC[C@H]2C(=O)N[C@H](CCCN=C(N)N)C(=O)NCC(N)=O)NC(=O)[C@H](CC(N)=O)NC1=O [Desmopressin, reference compound] | 0.88
O=C(O)c1cccnc1 [Niacin, reference compound] | 0.33
CN1CCCC1c1cccnc1 (centres unmarked) [Nicotine, reference compound] | 0.38
Bovine serum albumin | 7.0
Cytochrome C | 2.64
Insulin | 2.1
Myoglobin (protein, UniProt P02144 2-154, looked up) Myoglobin: GLSDGEWQLVLNVWGKVEADIPGHGQEVLIRLFKGHPETLEKFDKFKHLKSEDEMKASEDLKKHGATVLTALGGILKKKGHHEAEIKPLAQSHATKHKIPVKYLEFISECIIQVLQSKHPGDFGADAQGAMNKALELFRKDMASNYKELGFQG | 3.34

Same assay, conditions: in water; listed as bovine serum albumin

Molecule | Hydrodynamic Radius [nm]
Bovine serum albumin | 7
